{"source": "paper PMC2856455", "about": "(Journal of molecular biology, 2010)", "key": {"MDMX": {"target": "T1, MDMX (Homo sapiens, UniProt O15151)", "T1 sequence (O15151 24-108)": "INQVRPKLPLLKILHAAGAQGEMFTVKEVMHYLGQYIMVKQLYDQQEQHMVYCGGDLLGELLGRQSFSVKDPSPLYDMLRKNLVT", "test": "SPR-based competition binding assay, synthetic 24–108MDMX"}, "MDM2": {"target": "MDM2 (Homo sapiens, UniProt Q00987)", "test": "SPR-based competition binding assay, synthetic 25–109MDM2"}, "[1]": {"settings": "calculated binding free energy relative to PMI"}}, "data": [{"sequence": "TSFAEYWNLASP [L10A-PMI]", "values": [{"measurement": "ΔΔG, PMI-MDMX", "setting": "MDMX; [1]", "result": 2.28, "unit": "kcal/mol"}, {"measurement": "Kd ratio (kcal/mol), PMI-MDMX", "setting": "MDMX; relative to PMI", "result": 50, "unit": "kcal/mol"}, {"measurement": "ΔΔG(kcal/mol), PMI-MDM2", "setting": "MDM2; [1]", "result": 3.28, "unit": "kcal/mol"}, {"measurement": "preference between MDM2 and MDMX", "setting": "MDM2; comparison of binding affinities for MDM2 and MDMX", "result": "higher binding affinity for MDMX than for MDM2"}, {"measurement": "difference in relative binding free energy, MDM2 versus MDMX", "setting": "MDM2; mutation more deleterious to MDM2 than to MDMX", "result": 1.0, "unit": "kcal/mol"}, {"measurement": "Kd ratio, PMI-MDM2", "setting": "MDM2; relative to PMI", "result": 277}]}]}
